Substrate in this series: Nc1nc2c(ncn2[C@@H]2O[C@H](CO)[C@@H](O)[C@H]2O)c(=O)[nH]1
The series is described as follows: purified protein. The class given is biochemical, Homo sapiens.

[1] abbreviates: phosphate catalytic site (His257, Asn243, Glu201).

As a reminder, the Km is the concentration of substrate that gives half-maximal velocity. By kcat is commonly meant the number of substrate molecules converted per active site and unit of time at saturation. A word on the kcat/Km: it is the second-order rate constant that governs catalysis at low substrate concentration.

B1: purine nucleoside phosphorylase (PNP) (Homo sapiens) (protein)
chain: MENGYTYEDYKNTAEWLLSHTKHRPQVAIICGSGLGGLTDKLTQAQIFDYGEIPNFPRSTVPGHAGRLVFGFLNGRACVMMQGRFHMYEGYPLWKVTFPVRVFHLLGVDTLVVTNAAGGLNPKFEVGDIMLIRDHINLPGFSGQNPLRGPNDERFGDRFPAMSDAYDRTMRQRALSTWKQMGEQRELQEGTYVMVAGPSFETVAECRVLQKLGADAVGMSTVPEVIVARHCGLRVFGFSLITNKVIMDYESLEKANHEEVLAAGKQAAQKLEQFVSILMASIPLPDKAS
With B1, under setting [1], the Michaelis constant (Km) came out at 63 ± 8 µM, the turnover number (kcat) came to 8.8 ± 0.5 s⁻¹ and the kcat/Km stood at 140000 M⁻¹ s⁻¹.

B2: purine nucleoside phosphorylase (PNP) (Homo sapiens; E258D/L261A) (protein)
chain: MENGYTYEDYKNTAEWLLSHTKHRPQVAIICGSGLGGLTDKLTQAQIFDYGEIPNFPRSTVPGHAGRLVFGFLNGRACVMMQGRFHMYEGYPLWKVTFPVRVFHLLGVDTLVVTNAAGGLNPKFEVGDIMLIRDHINLPGFSGQNPLRGPNDERFGDRFPAMSDAYDRTMRQRALSTWKQMGEQRELQEGTYVMVAGPSFETVAECRVLQKLGADAVGMSTVPEVIVARHCGLRVFGFSLITNKVIMDYESLEKANHDEVAAAGKQAAQKLEQFVSILMASIPLPDKAS
Take B2: where the note is “phosphate catalytic site”, the Michaelis constant (Km) was 73 ± 13 µM, the kcat was determined as 4.2 ± 0.4 s⁻¹ and the kcat/Km is 58000 M⁻¹ s⁻¹.

These data come from PMC4794390.
